Data as given in PMC5041093, “Acidic Residues Control the Dimerization of the N-terminal Domain of Black Widow Spiders’ Major Ampullate Spidroin 1” (Scientific Reports, 2016).

Legend:
[1] = molecular target: NRN1_(L.h.) variant E114Q (Latrodectus hesperus); assay: SEC-MALS; Superdex 200 10/300 GL, 20 mM sodium phosphate pH 7.2 without NaCl, 71.2 μM protein injected; monomer to dimer
[2] = molecular target: NRN1_(L.h.) variant E114Q (Latrodectus hesperus); assay: NMR 15N relaxation (T1, T2; rotational correlation time); 15N-labelled E114Q, 22 mM sodium phosphate pH 7.2 without salt, 10% D2O; molecular weight estimated from the rotational correlation time
[3] = molecular target: the molecule itself; assay: SEC-MALS; Superdex 200 10/300 GL, 20 mM sodium phosphate pH 6.0 without NaCl, 71.2 μM protein injected; monomer to dimer

Row | Molecule | stoichiometry N [1] | stoichiometry N [2] | stoichiometry N [3]
1 | NRN1_(L.h.) variant E114Q (domain or fragment) | 2 | 2 | –
2 | amino-terminal domain of Latrodectus hesperus major ampullate spidroin 1, wildtype (domain or fragment, non-repetitive amino-terminal domain (NRN1) of major ampullate spidroin 1 (MaSp1), Latrodectus hesperus; also called wtNRN1_(L.h.); NRN1_(L.h.); source: E. coli BL21 (DE3), purified (nickel-NTA, SEC)) QANTPWSSKANADAFINSFISAASNTGSFSQDQMEDMSLIGNTLMAAMDNMGGRITPSKLQALDMAFASSVAEIAASEGGDLGVTTNAIADALTSAFYQTTGVVNSRFISEIRSLIGMFAQASANDVYASAGS | – | – | 2
